Results: article PMC3226441, “Generation of recombinant single-chain antibodies neutralizing the cytolytic activity of vaginolysin, the main virulence factor of Gardnerella vaginalis” (BMC Biotechnology, 2011)

Columns and labels:
[1] = target: T1, vaginolysin (VLY), recombinant (Gardnerella vaginalis); experiment: cell-based or functional assay
[2] = target: T1, vaginolysin (VLY), recombinant; experiment: ELISA; indirect ELISA; recombinant purified VLY (5 μg/ml, 50 mM Na-carbonate pH 9.5) coated on MaxiSorp plates; scFv 50 μg/ml to 20 ng/ml, 1 h at RT; detected by anti-His5 MAb and HRP-labelled anti-mouse IgG; apparent Kd = molar concentration at the mid-point of the titration curve; details: both partners purified

B1: anti-VLY scFv 23A2 (VL-VH) (scFv, V domains shown)
VH: QVQLEQSGAELVRSGASVKISCKASGYTFPSYNMHWVKQTPGQGLEWIGYIYPGNGVTNYNQKFKGKATLTADTSSSTAYMQISSLTSEDSAVYFCAREEGGNLLWGHFAMDYWGQGTSVTVSS
VL: DIVMTQTTLSLPVSLGDQASISCRSSQSLVHSNGNTYLHWYLQKPGQSPKLLIYKVSNRFSGVPDRFSGSGSGTDFTLKISRVEAEDLGVYFCSQSTHVPPTFGGGTKLEIR
notes: also called 23A2-derived scFv (variant VL-VH); source: E. coli BL21(DE3), from inclusion bodies, renatured, purified (Ni-NTA); not shown: His6, N-terminal, kept
other [1]: 110 nM
Kd [2]: 92 nM

B2: anti-VLY scFv 23A2 (VH-VL) (scFv, V domains shown)
VH: QVQLEQSGAELVRSGASVKISCKASGYTFPSYNMHWVKQTPGQGLEWIGYIYPGNGVTNYNQKFKGKATLTADTSSSTAYMQISSLTSEDSAVYFCAREEGGNLLWGHFAMDYWGQGTSVTVSS
VL: DIVMTQTTLSLPVSLGDQASISCRSSQSLVHSNGNTYLHWYLQKPGQSPKLLIYKVSNRFSGVPDRFSGSGSGTDFTLKISRVEAEDLGVYFCSQSTHVPPTFGGGTKLEIR
notes: also called 23A2-derived scFv (variant VH-VL); source: E. coli BL21(DE3), from inclusion bodies, renatured, purified (Ni-NTA); not shown: His6, N-terminal, kept
other [1]: 150 nM
Kd [2]: 98 nM

B3: anti-VLY scFv 9B4 (VL-VH) (scFv, V domains shown)
VH: QVQLEQSGPGLVAPSESLTITCTVSGFSLNSYGVHWVRQPPGKGLEWVGVMWAGGNTSYNSALMSRLSISKDNSKSQVFLKMNSLQTDDTAIYYCARARGAMDYWGQGTSVTVSS
VL: DIVMTQTTSHLSVSLGDRVTIACKASAHINNWLAWYQQKPGNAPSLLIAGATGLETGVPSRFSGSGSGKDFTLSISSLQTEDVATYYCQQYWDTPYTFGGGTKLEIR
notes: also called 9B4-derived scFv (variant VL-VH); source: E. coli BL21(DE3), from inclusion bodies, renatured, purified (Ni-NTA); not shown: His6, N-terminal, kept
other [1]: 37 nM
Kd [2]: 11 nM

B4: anti-VLY scFv 9B4 (VH-VL) (scFv, V domains shown)
VH: QVQLEQSGPGLVAPSESLTITCTVSGFSLNSYGVHWVRQPPGKGLEWVGVMWAGGNTSYNSALMSRLSISKDNSKSQVFLKMNSLQTDDTAIYYCARARGAMDYWGQGTSVTVSS
VL: DIVMTQTTSHLSVSLGDRVTIACKASAHINNWLAWYQQKPGNAPSLLIAGATGLETGVPSRFSGSGSGKDFTLSISSLQTEDVATYYCQQYWDTPYTFGGGTKLEIR
notes: also called 9B4-derived scFv (variant VH-VL); source: E. coli BL21(DE3), from inclusion bodies, renatured, purified (Ni-NTA); not shown: His6, N-terminal, kept
other [1]: 51 nM
Kd [2]: 15 nM
